B1: Mitochondrial antiviral-signaling protein (Homo sapiens), Q7Z434 (parent)
chain: MPFAEDKTYKYICRNFSNFCNVDVVEILPYLPCLTARDQDRLRATCTLSGNRDTLWHLFNTLQRRPGWVEYFIAALRGCELVDLADEVASVYQSYQPRTSDRPPDPLEPPSLPAERPGPPTPAAAHSIPYNSCREKEPSYPMPVQETQAPESPGENSEQALQTLSPRAIPRNPDGGPLESSSDLAALSPLTSSGHQEQDTELGSTHTAGATSSLTPSRGPVSPSVSFQPLARSTPRASRLPGPTGSVVSTGTSFSSSSPGLASAGAAEGKQGAESDQAEPIICSSGAEAPANSLPSKVPTTLMPVNTVALKVPANPASVSTVPSKLPTSSKPPGAVPSNALTNPAPSKLPINSTRAGMVPSKVPTSMVLTKVSASTVPTDGSSRNEETPAAPTPAGATGGSSAWLDSSSENRGLGSELSKPGVLASQVDSPFSGCFEDLAISASTSLGMGPCHGPEENEYKSEGTFGIHVAENPSIQLLEGNPGPPADPDGGPRPQADRKFQEREVPCHRPSPGALWLQVAVTGVLVVTLLVVLYRRRLH

Variants of: B1
Conditions: with polg_hcv77 polg

Variant	effect of a mutation on the interaction
C508R	decreasing interaction

From IntAct's records for PubMed 16301520
